Assay results published in paper PMC8564508.

Legend:
[1] = target: LH1-RC complex of Rba. sphaeroides IL106 (wild type) (Rhodobacter sphaeroides f. sp. denitrificans strain IL106) (UniProt Q3J1A4); experiment: sucrose density gradient centrifugation; supernatant of chromatophores solubilised with 1.0% w/v DDM on a stepwise sucrose gradient (10-40% w/v), 20 mM Tris-HCl pH 8.0, 0.05% w/v DDM, 4 °C, 150,000 x g, 6 h; ratio from volumes and absorption of the dimeric and monomeric layers
[2] = target: LH1-RC complex of the protein-U-deleted strain IL106-ΔU (Rhodobacter sphaeroides f. sp. denitrificans strain IL106) (UniProt Q3J1A4); experiment: as above

ratio of dimeric to monomeric LH1-RC [1] | stoichiometry N [1] | ratio of dimeric to monomeric LH1-RC [2] | stoichiometry N [2] | Substance
0.44 | 2 |  |  | LH1-RC complex of Rba. sphaeroides IL106 (wild type) (from UniProt Q3J1A4 1-58; Q3J1A3 1-49; P0C0Y8 1-282; P0C0Y9 1-308; P0C0Y7 1-260; P13402 1-82)
 |  | 0.15 | 2 | LH1-RC complex of the protein-U-deleted strain IL106-ΔU (from UniProt Q3J1A4 1-58; Q3J1A3 1-49; P0C0Y8 1-282; P0C0Y9 1-308; P0C0Y7 1-260; P13402 1-82)
